Experimental data published in article PMC9938351.

What was measured:
[1] = biological target: SARS-CoV-2 ubiquitin-like domain 1 (Ubl1) of Nsp3 (residues 1–111) (SARS-CoV-2); experiment: dynamic light scattering
[2] = biological target: SARS-CoV-2 ubiquitin-like domain 1 (Ubl1) of Nsp3 (residues 1–111) (SARS-CoV-2); experiment: cross-linking
[3] = biological target: SARS-CoV-2 nucleocapsid (N) protein (residues 1–419) (SARS-CoV-2) (UniProt P0DTC9); experiment: ITC

| Substance | stoichiometry N [1] [NTD per Ubl1] | stoichiometry N [2] | Kd [3] [nM] | dH [3] [kcal/mol] | stoichiometry N [3] |
| --- | --- | --- | --- | --- | --- |
| SARS-CoV-2 N protein N-terminal domain (NTD, residues 47–174) (from UniProt P0DTC9 47-174) (domain or fragment) | 0.5 |  |  |  |  |
| SARS-CoV-2 ubiquitin-like domain 1 (Ubl1) of Nsp3 (residues 1–111) (domain or fragment) |  | 2 | 800 | -14.9 | 1.19 |
